Assay results taken from the RNAGym collection of RNA variant scans (doi:10.7554/elife.90254).

B1: LINE1-full (parent)
chain: UACGUAGGUGGUUUUCCCCUGAUAGUGCUAAGGGGGCCUGGAAGUUUGGACUGGGCAGAGCUCAACACAGCGUGGCAAAGUGGCUGUGGCUAGACUGCCUCUCUGGAUUCCUCGUCACUCAGCAGGGCAUCUCUGAGAGAAAUGCC

Variants of: B1
Experiment: self-cleavage, relative activity (ratio to wild type); higher = more cleavage; in vitro, sequencing; the parent is a self-cleaving ribozyme
For U20A G48U, the self-cleavage was 1.42. For A57U U115A, the self-cleavage was 0.09. In the case of U119C U134G, the self-cleavage is reported as 1.58. Variant U20A A42U has a self-cleavage of 0.9. In the case of A129G A140U, the self-cleavage is reported as 1.8. With A77C the self-cleavage was 0.98. With C56U A117G the self-cleavage was 0.18. In the case of C76U U96A, the self-cleavage is reported as 0.05. G72A C90G showed a self-cleavage of 0.03. U12C C113A gave a self-cleavage of 0.64. For U26A A67U, the self-cleavage was 0.03. In the case of A64U A94G, the self-cleavage is reported as 0.09. With C110A U115C the self-cleavage was 1.47. A69C U134C gave a self-cleavage of 0.03. Variant U13C U29C has a self-cleavage of 1.35. Variant C71U A117U has a self-cleavage of 0.98. In the case of A30U U45A, the self-cleavage is reported as 1.14. G44A G89C gave a self-cleavage of 0.04. In the case of A2G A67U, the self-cleavage is reported as 0.18. A24C A64U showed a self-cleavage of 0.58. For U13C A42G, the self-cleavage was 1.19. Variant U39A U87C has a self-cleavage of 0.22. A124G U143C showed a self-cleavage of 0.62. U20C G21A showed a self-cleavage of 1.12. With A42G A121G the self-cleavage was 1.59. For U47C C61U, the self-cleavage was 0.05. For U14C A43G, the self-cleavage was 1.14. U15C U73C gave a self-cleavage of 1.8. Work on G74A A121G yielded a self-cleavage of 1.43. Variant A124C U143C has a self-cleavage of 2.43. A92C A138G gave a self-cleavage of 0.14. Variant C103A U112G has a self-cleavage of 0.72. U14A U100A gave a self-cleavage of 0.28. With C51U A57G the self-cleavage was 0.17. Work on A43U G54A yielded a self-cleavage of 0.56. Variant U47C A77C has a self-cleavage of 0.34. For U73A U115A, the self-cleavage was 1.66. In the case of A67U G72A, the self-cleavage is reported as 0.13. Work on U1A A107G yielded a self-cleavage of 1.67. For A31G A136G, the self-cleavage was 1.37. Variant U52C A129U has a self-cleavage of 1.61. With U23C U104A the self-cleavage was 1.14. A121U A124G showed a self-cleavage of 1.31. Variant A78U U104A has a self-cleavage of 1.8. Work on A69G G144A yielded a self-cleavage of 1.02. Variant C133U A140G has a self-cleavage of 1.05. In the case of G54A U130C, the self-cleavage is reported as 0.9. Work on U115C U119G yielded a self-cleavage of 2.63. Variant U91C U119G has a self-cleavage of 1.53. U12C A31G gave a self-cleavage of 1.24. With G75U U85C the self-cleavage was 0.07. In the case of U20C A69U, the self-cleavage is reported as 0.07. For A94C U96C, the self-cleavage was 0.18. In the case of U73C U81A, the self-cleavage is reported as 2.36. With U5A A142G the self-cleavage was 0.89. Variant G32U U119A has a self-cleavage of 0. G4C A79G gave a self-cleavage of 0.29. Variant U20A C28U has a self-cleavage of 1.3. For U23A A65U, the self-cleavage was 0.53. For C118U U132C, the self-cleavage was 1.81. Variant U14C A129G has a self-cleavage of 1.02. In the case of U5C U115C, the self-cleavage is reported as 1.27. C16U A124G gave a self-cleavage of 0.58. G72U A142G showed a self-cleavage of 0. Variant G93U has a self-cleavage of 0.06. Variant U91C A136G has a self-cleavage of 0.8. With A138G A141U the self-cleavage was 1.43. G25A A78G showed a self-cleavage of 1.2. With A65C A136G the self-cleavage was 0. U102C U143C gave a self-cleavage of 1.09. G135A A136G showed a self-cleavage of 1.61. In the case of A94C U109C, the self-cleavage is reported as 0. In the case of U1C U14C, the self-cleavage is reported as 0.93. With A64G U143C the self-cleavage was 0.26. Variant U130C A138U has a self-cleavage of 1.36. U1C U109C gave a self-cleavage of 0.42. For U20A A57G, the self-cleavage was 1. With U5C U85A the self-cleavage was 0.21. U14C G33A showed a self-cleavage of 1.02. In the case of U46C A78G, the self-cleavage is reported as 1.62. Work on U62C U134C yielded a self-cleavage of 0.05. G7U A69G gave a self-cleavage of 0.94. A121G A124C gave a self-cleavage of 0.32. A77U U108G showed a self-cleavage of 1.37. For G74A U102G, the self-cleavage was 0.56. Work on G32U A42G yielded a self-cleavage of 1.07. Variant A67C U134C has a self-cleavage of 0.09. Variant U108C A129C has a self-cleavage of 1.69. C37A U130C showed a self-cleavage of 1.39. C56U U130C showed a self-cleavage of 0. For U87C G122U, the self-cleavage was 0.3. Work on U91C U143G yielded a self-cleavage of 0.62. For G58A U132C, the self-cleavage was 0.05. For U29C C56U, the self-cleavage was 0.23. U102C G122U gave a self-cleavage of 1.63. Work on U45A A142G yielded a self-cleavage of 1.55. U12G U104A gave a self-cleavage of 1.76. In the case of U73C C118A, the self-cleavage is reported as 1.46. U52C A124U gave a self-cleavage of 1.48. With G53A U108A the self-cleavage was 0.14. With A42G A124G the self-cleavage was 0.87. For U46A G89C, the self-cleavage was 0.03. Work on G21U U85G yielded a self-cleavage of 0.08. A31U U102A showed a self-cleavage of 1.91. C19U U115A gave a self-cleavage of 1.04. In the case of U26C C146U, the self-cleavage is reported as 1.68. For U9C C113U, the self-cleavage was 1.08. In the case of U47A C68U, the self-cleavage is reported as 0.13. In the case of G36U A107G, the self-cleavage is reported as 0.9. Variant U115A A138U has a self-cleavage of 1.77. In the case of U12C A107G, the self-cleavage is reported as 0.99. Work on G49U U134C yielded a self-cleavage of 1.63. A107G U109A gave a self-cleavage of 1.83. In the case of U115C A142U, the self-cleavage is reported as 1.56. For U20A U119C, the self-cleavage was 1.05. Variant U87C U143A has a self-cleavage of 0.22. With C16U G40U the self-cleavage was 0.6. With C19U G74A the self-cleavage was 1.12. Work on G33C U87G yielded a self-cleavage of 0.22. For G8A A79G, the self-cleavage was 1.36. U47C U87C showed a self-cleavage of 0.48. U91C A92G gave a self-cleavage of 0.1. In the case of A42G U104A, the self-cleavage is reported as 1.13. Work on U12G A121C yielded a self-cleavage of 1.29. In the case of A22U U143G, the self-cleavage is reported as 1.27. A6C A124U gave a self-cleavage of 1.13. Work on C38U A136U yielded a self-cleavage of 1.08. A6G A142G gave a self-cleavage of 1.01. U1A U112C showed a self-cleavage of 1.03. U39G U130C showed a self-cleavage of 1.25. With U87A C113A the self-cleavage was 0.06. With G58A A59G the self-cleavage was 0. In the case of A67G U81A, the self-cleavage is reported as 0.63. Work on A79G A94G yielded a self-cleavage of 0.35. With C37U the self-cleavage was 1.23. Variant A69U U91A has a self-cleavage of 0.05. With U29C A50G the self-cleavage was 0.82. A24C A124G gave a self-cleavage of 0.98. A78U U102C showed a self-cleavage of 1.12. U13C U130G gave a self-cleavage of 0.95. In the case of C76U A141G, the self-cleavage is reported as 1.18. Variant G32A G97U has a self-cleavage of 0.1. Work on U14A A42U yielded a self-cleavage of 0.47. In the case of A24U G93A, the self-cleavage is reported as 0.06. For C101A U134G, the self-cleavage was 1.8. For U1C G35A, the self-cleavage was 0.67. For A22G G35U, the self-cleavage was 0.6. A30G A78G showed a self-cleavage of 1.34. With A31U A79U the self-cleavage was 2.19. Work on U12C U15C yielded a self-cleavage of 1.05. In the case of U15C A42U, the self-cleavage is reported as 1.38. In the case of A30U G89U, the self-cleavage is reported as 0.03. With U29C A117U the self-cleavage was 1.51. In the case of U12A U23C, the self-cleavage is reported as 1.47. For U100C A124G, the self-cleavage was 1.32. G32A U102C showed a self-cleavage of 1.62. Variant C51U A117G has a self-cleavage of 1.5. With A2G G106U the self-cleavage was 1.04. A43G C146A gave a self-cleavage of 1.09. With G89U A107G the self-cleavage was 0.04. In the case of A78G A121G, the self-cleavage is reported as 1.24. In the case of G35A A124G, the self-cleavage is reported as 0.61. U13C U52C showed a self-cleavage of 1.06. Variant C3U G41A has a self-cleavage of 2.76. A69C U132A gave a self-cleavage of 0.2. U39A G89A showed a self-cleavage of 0.06. With A59G A141G the self-cleavage was 0.08.
